Reference: patent publication US20240093191A1, “COMPOSITIONS AND METHODS FOR TREATING DISEASE ASSOCIATED WITH DUX4 OVEREXPRESSION” (RESEARCH INSTITUTE AT NATIONWIDE CHILDREN'S HOSPITAL, priority 2021, published 2024)

B1: U6.mir-675NF: U6 mir-675 construct with no flanking sequences (nucleic acid)
DNA: TCTAGAGATCCGACGCCGCCATCTCTAGGCCCGCGCCGGCCCCCTCGCACAGACTTGTGGGAGAAGCTCGGCTACTCCCCTGCCCCGGTTAATTTGCATATAATATTTCCTAGTAACTATAGAGGCTTAATGTGCGATAAAAGACAGATAATCTGTTCTTTTTAATACTAGCTACATTTTACATGATAGGCTTGGATTTCTATAAGAGATACAAATACTAAATTATTATTTTAAAAAACAGCACAAAAGGAAACTCACCCTAACTGTAAAGTAATTGTGTGTTTTGAGACTATAAATATCCCTTGGAGAAAAGCCTTGTTTGCCCCAGGGTCTGGTGCGGAGAGGGCCCACAGTGGACTTGGTGACGCTGTATGCCCTCACCGCTCAGCCCCTGGGGTTTTTT
B2: U6.mir-675H: mir-675 construct with modified flanking sequences and UA dinucleotide (nucleic acid)
DNA: TCTAGAGATCCGACGCCGCCATCTCTAGGCCCGCGCCGGCCCCCTCGCACAGACTTGTGGGAGAAGCTCGGCTACTCCCCTGCCCCGGTTAATTTGCATATAATATTTCCTAGTAACTATAGAGGCTTAATGTGCGATAAAAGACAGATAATCTGTTCTTTTTAATACTAGCTACATTTTACATGATAGGCTTGGATTTCTATAAGAGATACAAATACTAAATTATTATTTTAAAAAACAGCACAAAAGGAAACTCACCCTAACTGTAAAGTAATTGTGTGTTTTGAGACTATAAATATCCCTTGGAGAAAAGCCTTGTTTGACCGTTTAAACCCCAGGGTCTGGTGCGGAGAGGGCCCACAGTGGACTTGGTGACGCTGTATGCCCTCACCGCTCAGCCCCTGGGGCGCACGCCAGTTTTTT
B3: U6.mir-675-2.3.1: mir-675 construct with modified 5' and 3' flanking sequences (nucleic acid)
DNA: TCTAGAGATCCGACGCCGCCATCTCTAGGCCCGCGCCGGCCCCCTCGCACAGACTTGTGGGAGAAGCTCGGCTACTCCCCTGCCCCGGTTAATTTGCATATAATATTTCCTAGTAACTATAGAGGCTTAATGTGCGATAAAAGACAGATAATCTGTTCTTTTTAATACTAGCTACATTTTACATGATAGGCTTGGATTTCTATAAGAGATACAAATACTAAATTATTATTTTAAAAAACAGCACAAAAGGAAACTCACCCTAACTGTAAAGTAATTGTGTGTTTTGAGACTATAAATATCCCTTGGAGAAAAGCCTTGTTTGAATCACACTGCCCCAGGGTCTGGTGCGGAGAGGGCCCACAGTGGACTTGGTGACGCTGTATGCCCTCACCGCTCAGCCCCTGGGGATAACTCCTAATCACACTTTTTT

Assays:
Format in all cases: cell-based, human
[1] = test system: DUX4 protein; assay: Western blot of V5-tagged DUX4 protein in co-transfected HEK293 cells; settings: CMV.DUX4-FL/CMV.eGFP, HEK293, molar ratio 1 to 3, eGFP normalizer, relative to U6-milacZ, N = 3-8
[2] = test system: pri-mir-675; assay: TaqMan QRT-PCR of pri-mir-675 from transfected constructs in HEK293 cells; settings: 24 h post-transfection
Text: (§1) RNA Extraction. RNA from HEK293 cells was extracted for Northern blot assay and QPCR. The miRVANA miRNA isolation kit (ThermoFisher Scientific) was used according to manufacturer's directions to extract total RNA encompassing small RNAs, such as miRNAs. To extract RNA from C57BL/6 skeletal muscles, cryopreserved muscles were crushed under suboptimal temperatures using liquid nitrogen and using mortar and pestle. Crushed muscles were then lysed using […] of miRVANA miRNA isolation kit lysis buffer, a TissueLyser and 1.0 mm zirconia beads (Biospec). Muscle was homogenized at 30 Hz for 30 sec with 10 sec rest. This was repeated 3 times.
(§2) TaqMan Gene Expression Assay. QRT-PCR was carried out to quantify the expression of pri-mir-675, mir-675-5p and mi405 using TaqMan probes (ThermoFisher Scientific). Experiments were started by eliminating genomic DNA from the RNA preparations, and then cDNA was generated using the High-Capacity cDNA Reverse Transcription Kit (Applied Biosystems) following manufacturer's instructions. Within the same cDNA reaction, 1×RT random hexamer primers were used to generate the cDNA for RPL13A, used as a reference gene, and for pri-mir-675. To generate the cDNA for mir-675, the RT mir-675 reverse primer provided by ThermoFisher Scientific was used. For mi405, the mi405 qPCR protocol was done as it was previously described [Wallace et al., Mol. Ther. Methods Clin. Dev. 8: 121-30 (2018)]. To quantify mir-675 and mi405 levels, RNA was extracted using the total RNA protocol for the mirVana miRNA Isolation Kit (Ambion) from HEK293 cells. cDNA was generated using the High-Capacity cDNA Reverse Transcription Kit (Applied Biosystems) using a mix of random hexamer primers and specific reverse primer for pri-mir-675 and mir-675-5p. For mi405, 200 nM of the stem-loop forming primer (5′-[…]-3′) (SEQ ID NO: 144) was also used for the RT step. A custom TaqMan assay (Applied Biosystems) including 1.5 μM of Forward primer (5′-[…]-3′) (SEQ ID NO: 145), 0.7 μM of Reverse primer (5′-GTGCAGGGTCCGAGGT-3′) (SEQ ID NO: 146), and 0.2 μM of mi405 probe (5′-6FAM-ATACGACGTCCAGGAT-3′) (SEQ ID NO: 147) was then run using the CFX Connect Real Time system apparatus (Bio-Rad). RPL13A (Mm02526700_g1; Applied Biosystems) served as the reference gene. The TaqMan gene expression assay consisted of using the TaqMan Gene Expression Master mix and TaqMan probes purchased from ThermoFisher Scientific. 1× of probe was mixed with 1× of the TaqMan Gene Expression Master mix (ThermoFisher Scientific), and with 20 ng of cDNA. The mir-675- and mi405-specific primers and probes were designed to quantify only the mir-675-5p and mi405 mature sequence (see TaqMan Gene Expression Master mix protocol).

[3] = test system: mir-675-5p; assay: ddPCR of all mature mir-675-5p sequences (TaqMan Advanced miRNA cDNA synthesis) in HEK293 cells
Method: Digital Droplet PCR (ddPCR). For mir-675 and mi405 constructs, RNA extraction was carried out as described for QPCR above. For cDNA synthesis, the TaqMan advanced cDNA synthesis kit (Thermo Fisher) was used and cDNA was prepared by following manufacturer's instructions. ddPCR was carried out using 1× ddPCR Supermix for probes (No dUTP) (Bio-Rad), 1× commercially available mir-675 advanced TaqMan probe, or a custom made mi405 advanced TaqMan probe (ThermoFisher) and 50 ng of cDNA. For DUX4 cDNA synthesis, the High-Capacity cDNA Reverse Transcription Kit (Applied Biosystems) was used according to manufacturer's instructions. Within the same cDNA reaction, 1×RT random hexamer primers and 25 pmoles of the Oligo(dT) primer were used to generate cDNA for DUX4 and DUX4-responsive biomarkers and for mouse Rpl13A, used as a reference gene. To quantify DUX4, the ddPCR reaction mixture (20 μL) contained 1× ddPCR Evagreen Supermix (Bio-Rad), 1 μM of forward and reverse DUX4 primers (Sharma et al., J Genet Syndr Gene Ther 2016 August; 7(4):303. doi: 10.4172/2157-7412.1000303. Epub 2016 Aug. 8), and 50 ng of cDNA. To quantify Rpl13A and DUX4-responsive biomarkers (Trim36 and Wfdc3), the 1× ddPCR Supermix for probes (No dUTP) and TaqMan specific probes were used for each of the genes. Droplets were generated using the Automatic Droplet generator QX200 AutoDG (Bio-Rad), the reactions were amplified in a C1000 Touch™ Thermal Cycler with 96-Deep Well Reaction Module (Bio-Rad). Cycling conditions were set up following the QX200 ddPCR Evagreen Supermix protocol. All assays are compatible with an annealing temperature of 58° C. Droplets were then read using the QX200 droplet reader (Bio-Rad). Finally, data were analyzed using the QuantaSoft analysis software (Bio-Rad). For quantification, each reaction of 20 μL was estimated to give at least 10,000 acceptable droplets.
In order to quantify the level of all these mature sequences, the TaqMan advanced miRNA cDNA synthesis method that uses universal reverse transcription (RT) chemistry to synthesize cDNA templates that can be quantified using the TaqMan Advanced miRNA probes was used. In this method, most of the processed mature miRNA sequences were quantified.

[4] = test system: mir-675-5p; assay: Small-transcript northern blot of mir-675 processing in HEK293 cells; settings: HEK293; anti-mir-675-5p biotinylated probe
Text: Small-Transcript Northern Blots. […] (SEQ ID NO: 148)).

[5] = test system: mir-675-5p; assay: TaqMan QRT-PCR of mature mir-675-5p from transfected constructs in HEK293 cells; settings: HEK293, 24 h post-transfection; for mir-675-5p levels compared to U6.mir-675: 23 mer mature mir-675-5p
Text: as §1, §2

Row | Molecule | Average inhibition efficiency (%) of DUX4 protein levels [1] | pri-mir-675 levels compared to U6.mir-675 [2] | fold change of all mature mir-675-5p sequences compared to U6.mir-675 [3] | mature mir-675-5p bands on northern blot [4] | Average inhibition efficiency (%) of DUX4 protein levels ([1]; listed as U6-mir-675H) | mir-675-5p levels compared to U6.mir-675 [5] | ratio of mir-675-5p/pri-mir-675 compared to U6.mir-675 [5]
1 | B1 | 69 ± 6 (N = 5) % | 213±28% | 176±60% | detectable mir-675 mature sequences |  |  | 
2 | B2 | 89±6% | 256±37% | 201±38% |  | 89 ± 6 (N = 3) % | 774±93% | 303±57%
3 | B3 | 58 ± 8 (N = 3) % | 274±49% | 187±40% |  |  | 241±29% | 
